System: Abp1 PPIs
Test: DHFR-PCA of Abp1 SH3-swapped baits (Fig. 2B-D, S2C, S2F);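 for Protein-protein interaction distance between Abp1 SH3-swapped baits, to ABP1: Euclidean distance between DHFR-PCA score profiles of the baits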;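 for Protein-protein interaction distance between Abp1 SH3-swapped baits, to BEM1-2: Euclidean distance between DHFR-PCA score profiles of the baits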;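 for Protein-protein interaction distance between Abp1 SH3-swapped baits, to BOI1: Euclidean distance between DHFR-PCA score profiles of the baits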;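 for Protein-protein interaction distance between Abp1 SH3-swapped baits, to BZZ1-1: Euclidean distance between DHFR-PCA score profiles of the baits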
Type: cell-based, Saccharomyces cerevisiae
Settings: for Protein-protein interaction distance between Abp1 SH3-swapped baits, to ABP1: Abp1 bait with swapped SH3, distance to bait with ABP1 SH3; for Protein-protein interaction distance between Abp1 SH3-swapped baits, to BBC1: distance to Abp1 bait with BBC1 SH3; for Protein-protein interaction distance between Abp1 SH3-swapped baits, to BEM1-1: distance to Abp1 bait with BEM1-1 SH3; for Protein-protein interaction distance between Abp1 SH3-swapped baits, to BEM1-2: distance to Abp1 bait with BEM1-2 SH3; for Protein-protein interaction distance between Abp1 SH3-swapped baits, to BOI1: distance to Abp1 bait with BOI1 SH3; for Protein-protein interaction distance between Abp1 SH3-swapped baits, to BOI2: distance to Abp1 bait with BOI2 SH3; for Protein-protein interaction distance between Abp1 SH3-swapped baits, to BUD14: distance to Abp1 bait with BUD14 SH3; for Protein-protein interaction distance between Abp1 SH3-swapped baits, to BZZ1-1: distance to Abp1 bait with BZZ1-1 SH3; for Protein-protein interaction distance between Abp1 SH3-swapped baits, to BZZ1-2: distance to Abp1 bait with BZZ1-2 SH3; for Protein-protein interaction distance between Abp1 SH3-swapped baits, to CDC25: distance to Abp1 bait with CDC25 SH3; for Protein-protein interaction distance between Abp1 SH3-swapped baits, to CTTN: distance to Abp1 bait with CTTN SH3; for Protein-protein interaction distance between Abp1 SH3-swapped baits, to CYK3: distance to Abp1 bait with CYK3 SH3; for Protein-protein interaction distance between Abp1 SH3-swapped baits, to DBNL: distance to Abp1 bait with DBNL SH3; for Protein-protein interaction distance between Abp1 SH3-swapped baits, to FUS1: distance to Abp1 bait with FUS1 SH3; for Protein-protein interaction distance between Abp1 SH3-swapped baits, to HCLS1: distance to Abp1 bait with HCLS1 SH3; for Protein-protein interaction distance between Abp1 SH3-swapped baits, to HOF1: distance to Abp1 bait with HOF1 SH3; for Protein-protein interaction distance between Abp1 SH3-swapped baits, to HSE1: distance to Abp1 bait with HSE1 SH3; for Protein-protein interaction distance between Abp1 SH3-swapped baits, to LSB1: distance to Abp1 bait with LSB1 SH3; for Protein-protein interaction distance between Abp1 SH3-swapped baits, to LSB3: distance to Abp1 bait with LSB3 SH3; for Protein-protein interaction distance between Abp1 SH3-swapped baits, to MYO3: distance to Abp1 bait with MYO3 SH3; for Protein-protein interaction distance between Abp1 SH3-swapped baits, to MYO5: distance to Abp1 bait with MYO5 SH3; for Protein-protein interaction distance between Abp1 SH3-swapped baits, to NBP2: distance to Abp1 bait with NBP2 SH3; for Protein-protein interaction distance between Abp1 SH3-swapped baits, to PIN3: distance to Abp1 bait with PIN3 SH3; for Protein-protein interaction distance between Abp1 SH3-swapped baits, to RVS167: distance to Abp1 bait with RVS167 SH3; for Protein-protein interaction distance between Abp1 SH3-swapped baits, to SDC25: distance to Abp1 bait with SDC25 SH3; for Protein-protein interaction distance between Abp1 SH3-swapped baits, to SHO1: distance to Abp1 bait with SHO1 SH3; for Protein-protein interaction distance between Abp1 SH3-swapped baits, to SLA1-1: distance to Abp1 bait with SLA1-1 SH3; for Protein-protein interaction distance between Abp1 SH3-swapped baits, to SLA1-2: distance to Abp1 bait with SLA1-2 SH3; for Protein-protein interaction distance between Abp1 SH3-swapped baits, to SLA1-3: distance to Abp1 bait with SLA1-3 SH3; for Protein-protein interaction distance between Abp1 SH3-swapped baits, to YSC84: distance to Abp1 bait with YSC84 SH3; for PPIs gained by Abp1 - SH3-dependent PPIs gained by Abp1 / SH3-dependent PPIs - SH3-dependent PPIs gained by Abp1 / SH3-dependent PPIs gained by Abp1: number of PPIs, Abp1 SH3-swapped with the listed SH3, Fig2D,S2F; for PPIs gained by Abp1 - SH3-dependent PPIs gained by Abp1 / SH3-dependent PPIs - SH3-dependent PPIs gained by Abp1: difference; for SH3-dependent PPIs gained by Abp1: DHFR-PCA
Procedure, shortened: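 Yeast DHFR-PCA in which Abp1 baits, carrying their SH3 replaced by CRISPR–Cas9 with one of 27 yeast SH3s or human CTTN, HCLS1 or DBNL SH3s, were mated against 575 SH3-associated DHFR F[3] preys plus 40 negative controls. Four tests were run per PPI. Diploids were selected twice (48 h, 30 °C), then grown 4 days on PCA selection media.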

B1: LSB1 (protein, UniProt P53281 2-241, looked up)
LAS seventeen-binding protein …: SASLVNRSLKNIRNELEFLKESNVISGDIFELINSKLPEKWDGNQRSPQNADTEEYVEALYDFEAQQDGDLSLKTGDKIQVLEKISPDWYRGKSNNKIGIFPANYVKPAFTRSASPKSAEAASSSTVSRPSVPPPSYEPAASQYPSQQVSAPYAPPAGYMQAPPPQQQQAPLPYPPPFTNYYQQPQQQYAPPSQQAPVEAQPQQSSGASSAFKSFGSKLGNAAIFGAGSAIGSDIVNSIF
Protein-protein interaction distance between Abp1 SH3-swapped baits, to ABP1 (sheet Fig2C): 13.24
Protein-protein interaction distance between Abp1 SH3-swapped baits, to BBC1 (sheet Fig2C): 13.47
Protein-protein interaction distance between Abp1 SH3-swapped baits, to BEM1-1 (sheet Fig2C): 19.25
Protein-protein interaction distance between Abp1 SH3-swapped baits, to BEM1-2 (sheet Fig2C): 36.52
Protein-protein interaction distance between Abp1 SH3-swapped baits, to BOI1 (sheet Fig2C): 16.11
Protein-protein interaction distance between Abp1 SH3-swapped baits, to BOI2 (sheet Fig2C): 19.63
Protein-protein interaction distance between Abp1 SH3-swapped baits, to BUD14 (sheet Fig2C): 22.3
Protein-protein interaction distance between Abp1 SH3-swapped baits, to BZZ1-1 (sheet Fig2C): 10.43
Protein-protein interaction distance between Abp1 SH3-swapped baits, to BZZ1-2 (sheet Fig2C): 15.96
Protein-protein interaction distance between Abp1 SH3-swapped baits, to CDC25 (sheet Fig2C): 30.85
Protein-protein interaction distance between Abp1 SH3-swapped baits, to CTTN (sheet Fig2C): 16.72
Protein-protein interaction distance between Abp1 SH3-swapped baits, to CYK3 (sheet Fig2C): 31.53
Protein-protein interaction distance between Abp1 SH3-swapped baits, to DBNL (sheet Fig2C): 10.77
Protein-protein interaction distance between Abp1 SH3-swapped baits, to FUS1 (sheet Fig2C): 23.45
Protein-protein interaction distance between Abp1 SH3-swapped baits, to HCLS1 (sheet Fig2C): 10.61
Protein-protein interaction distance between Abp1 SH3-swapped baits, to HOF1 (sheet Fig2C): 35.15
Protein-protein interaction distance between Abp1 SH3-swapped baits, to HSE1 (sheet Fig2C): 12.02
Protein-protein interaction distance between Abp1 SH3-swapped baits, to LSB1 (sheet Fig2C): 0.00
Protein-protein interaction distance between Abp1 SH3-swapped baits, to LSB3 (sheet Fig2C): 3.731
Protein-protein interaction distance between Abp1 SH3-swapped baits, to MYO3 (sheet Fig2C): 9.135
Protein-protein interaction distance between Abp1 SH3-swapped baits, to MYO5 (sheet Fig2C): 7.822
Protein-protein interaction distance between Abp1 SH3-swapped baits, to NBP2 (sheet Fig2C): 21.49
Protein-protein interaction distance between Abp1 SH3-swapped baits, to PIN3 (sheet Fig2C): 5.513
Protein-protein interaction distance between Abp1 SH3-swapped baits, to RVS167 (sheet Fig2C): 7.392
Protein-protein interaction distance between Abp1 SH3-swapped baits, to SDC25 (sheet Fig2C): 37.12
Protein-protein interaction distance between Abp1 SH3-swapped baits, to SHO1 (sheet Fig2C): 11.57
Protein-protein interaction distance between Abp1 SH3-swapped baits, to SLA1-1 (sheet Fig2C): 33.34
Protein-protein interaction distance between Abp1 SH3-swapped baits, to SLA1-2 (sheet Fig2C): 24.03
Protein-protein interaction distance between Abp1 SH3-swapped baits, to SLA1-3 (sheet Fig2C): 5.759
Protein-protein interaction distance between Abp1 SH3-swapped baits, to YSC84 (sheet Fig2C): 3.911
PPIs gained by Abp1 - SH3-dependent PPIs gained by Abp1: 41
SH3-dependent PPIs - SH3-dependent PPIs gained by Abp1: 8
SH3-dependent PPIs gained by Abp1: 0

B2: HSE1 (protein, UniProt P38753 2-452, looked up)
Class E vacuolar …: SSSAIKIRNALLKATDPKLRSDNWQYILDVCDLVKEDPEDNGQEVMSLIEKRLEQQDANVILRTLSLTVSLAENCGSRLRQEISSKNFTSLLYALIESHSVHITLKKAVTDVVKQLSDSFKDDPSLRAMGDLYDKIKRKAPYLVQPNVPEKHNMSTQADNSDDEELQKALKMSLFEYEKQKKLQEQEKESAEVLPQQQQQHQQQNQAPAHKIPAQTVVRRVRALYDLTTNEPDELSFRKGDVITVLEQVYRDWWKGALRGNMGIFPLNYVTPIVEPSKEEIEKEKNKEAIVFSQKTTIDQLHNSLNAASKTGNSNEVLQDPHIGDMYGSVTPLRPQVTRMLGKYAKEKEDMLSLRQVLANAERSYNQLMDRAANAHISPPVPGPALYAGMTHANNTPVMPPQRQSYQSNEYSPYPSNLPIQHPTNSANNTPQYGYDLGYSVVSQPPPGYEQ
Protein-protein interaction distance between Abp1 SH3-swapped baits, to ABP1 (sheet Fig2C): 9.43
Protein-protein interaction distance between Abp1 SH3-swapped baits, to BBC1 (sheet Fig2C): 7.295
Protein-protein interaction distance between Abp1 SH3-swapped baits, to BEM1-1 (sheet Fig2C): 11.1
Protein-protein interaction distance between Abp1 SH3-swapped baits, to BEM1-2 (sheet Fig2C): 30.97
Protein-protein interaction distance between Abp1 SH3-swapped baits, to BOI1 (sheet Fig2C): 7.847
Protein-protein interaction distance between Abp1 SH3-swapped baits, to BOI2 (sheet Fig2C): 11.78
Protein-protein interaction distance between Abp1 SH3-swapped baits, to BUD14 (sheet Fig2C): 14.54
Protein-protein interaction distance between Abp1 SH3-swapped baits, to BZZ1-1 (sheet Fig2C): 5.175
Protein-protein interaction distance between Abp1 SH3-swapped baits, to BZZ1-2 (sheet Fig2C): 7.81
Protein-protein interaction distance between Abp1 SH3-swapped baits, to CDC25 (sheet Fig2C): 24.19
Protein-protein interaction distance between Abp1 SH3-swapped baits, to CTTN (sheet Fig2C): 9.154
Protein-protein interaction distance between Abp1 SH3-swapped baits, to CYK3 (sheet Fig2C): 25.16
Protein-protein interaction distance between Abp1 SH3-swapped baits, to DBNL (sheet Fig2C): 5.82
Protein-protein interaction distance between Abp1 SH3-swapped baits, to FUS1 (sheet Fig2C): 16.23
Protein-protein interaction distance between Abp1 SH3-swapped baits, to HCLS1 (sheet Fig2C): 9.236
Protein-protein interaction distance between Abp1 SH3-swapped baits, to HOF1 (sheet Fig2C): 29.42
Protein-protein interaction distance between Abp1 SH3-swapped baits, to HSE1 (sheet Fig2C): 0.00
Protein-protein interaction distance between Abp1 SH3-swapped baits, to LSB1 (sheet Fig2C): 12.02
Protein-protein interaction distance between Abp1 SH3-swapped baits, to LSB3 (sheet Fig2C): 12.29
Protein-protein interaction distance between Abp1 SH3-swapped baits, to MYO3 (sheet Fig2C): 11.17
Protein-protein interaction distance between Abp1 SH3-swapped baits, to MYO5 (sheet Fig2C): 10.84
Protein-protein interaction distance between Abp1 SH3-swapped baits, to NBP2 (sheet Fig2C): 13.88
Protein-protein interaction distance between Abp1 SH3-swapped baits, to PEX13 (distance to Abp1 bait with PEX13 SH3, sheet Fig2C): 8.715
Protein-protein interaction distance between Abp1 SH3-swapped baits, to PIN3 (sheet Fig2C): 9.808
Protein-protein interaction distance between Abp1 SH3-swapped baits, to RVS167 (sheet Fig2C): 7.315
Protein-protein interaction distance between Abp1 SH3-swapped baits, to SDC25 (sheet Fig2C): 31.59
Protein-protein interaction distance between Abp1 SH3-swapped baits, to SHO1 (sheet Fig2C): 5.64
Protein-protein interaction distance between Abp1 SH3-swapped baits, to SLA1-1 (sheet Fig2C): 27.26
Protein-protein interaction distance between Abp1 SH3-swapped baits, to SLA1-2 (sheet Fig2C): 16.63
Protein-protein interaction distance between Abp1 SH3-swapped baits, to SLA1-3 (sheet Fig2C): 11.86
Protein-protein interaction distance between Abp1 SH3-swapped baits, to YSC84 (sheet Fig2C): 12.83
PPIs gained by Abp1 - SH3-dependent PPIs gained by Abp1: 4
SH3-dependent PPIs - SH3-dependent PPIs gained by Abp1: 1
SH3-dependent PPIs gained by Abp1: 0
